According to article PMC4317013 (The Journal of Biological Chemistry, 2014):

Legend:
[1] = target: T1, testisin (Mus musculus, UniProt Q9JHJ7); assay: Cleavage by and complex formation with testisin in solution (SDS-PAGE, Western blotting, Edman degradation); format: biochemical; settings: for N-terminal testisin cleavage site: Edman degradation of testisin-cleaved protein, Fig. 1D
T1 construct: purchased R&D Systems
Protocol: Activation of protestisin and testisin (R&D Systems, Minneapolis, MN) activity assays were performed according to the instructions of the supplier. Inhibition of testisin by PCI was tested on 96-well F16 Black MaxiSorp plates (Nunc, Roskilde, Denmark). 20 nM testisin was incubated with 200 or 1000 nM (final concentration) rhPCI or rmPCI in the absence or presence of 5 units/ml heparin in 100 μl of testisin buffer (50 mM Tris, 150 mM NaCl, 10 mM CaCl2, pH 7.5). After a 30-min incubation at 37 °C, 100 μl of 0.2 mM fluorogenic substrate I-1295 (Bachem, Bubendorf, Switzerland) dissolved in testisin buffer was added to each well. Plates were read every 15 s at an excitation wavelength of 380 nm and an emission wavelength of 460 nm using a Synergy H4 microplate reader (BioTek, Seattle, WA). The 5-min time point was used to calculate the relative activity. The amidolytic activity of testisin in the absence of PCI was assigned to 1, and for each reaction, the remaining testisin activity was calculated. To detect the possible complex formation between PCI and testisin, different concentrations (7.5–960 nM) of rhPCI or rmPCI, respectively, were incubated with 30 nM testisin for varying times (0–40 min) at 37 °C. The reactions were stopped by adding an equal volume of 2× Laemmli buffer containing 5% 2-mercaptoethanol ([40]). Samples were heated at 99 °C for 5 min followed by sodium dodecyl sulfate-polyacrylamide electrophoresis (SDS-PAGE) and Western blotting. To determine the testisin cleavage sites in human and mouse PCI, WT PCI or PCI mutants (rhPCI, hPCI-R11G, hPCI-R354G, rmPCI, mPCI-A18G, or mPCI-R352G, respectively; 300 nM each) were incubated with 30 nM testisin for 1 h at 37 °C. […]
SDS-PAGE was performed according to the method of Laemmli ([40]) using 10% acrylamide gels. […] The signal was detected using SuperSignal West Femto or SuperSignal West Pico chemiluminescent substrate (Thermo Fisher Scientific, Rockford, IL) with a FluorChem HD2 imaging system (ProteinSimple, Santa Clara, CA). […]

[2] = test system: Jurkat T cells
Protocol: For the internalization experiment, cells were seeded at 1 × 10^6 cells/ml with 8 ml of full medium into 75-cm^2 flasks and treated with respective 200 nM proteins for 2 h or 5 μM peptides for 1 h.
Human A+-helix peptide ([…]; corresponding to the cleaved N-terminal peptide of hPCI), mouse A+-helix peptide ([…]; corresponding to the cleaved N-terminal peptide of mPCI), and TAT peptide ([…]) ([42]) were synthesized and labeled with FITC (GenScript, Piscataway, NJ). […] Fluorescence-activated cell sorting (FACS) analysis was performed with a FACSCalibur flow cytometer (BD Biosciences). Further data analysis was done with Flowing Software ([43]). For confocal microscopy, the fixed cells were suspended with Vectashield mounting medium containing […] DAPI (Vector Laboratories, Burlingame, CA) and transferred onto slides. Confocal images were taken by a Zeiss LSM-510 Meta confocal microscope system (Zeiss, Jena, Germany). Zeiss LSM Image Browser software was applied for further analysis of images.

[3] = test system: testisin; assay: 30 nM testisin in testisin buffer (50 mM Tris, 150 mM NaCl, 10 mM CaCl2, pH 7.5); settings: 37 °C, up to 120 min
[4] = test system: Jurkat T cells; assay: Internalization of PCI forms by Jurkat T cells (cell lysis, subcellular fractionation, Western blotting); format: cell-based, human; settings: 200 nM protein, 2 h, 37 °C, Western blotting with anti-mPCI IgG; for internalization by Jurkat T cells (whole cell lysate and subcellular fractions): full medium, Fig. 3
Protocol: SDS-PAGE was performed according to the method of Laemmli ([40]) using 10% acrylamide gels. Following electrophoresis, the proteins were transferred onto PVDF membranes. The membranes were blocked with blotting buffer (5% skim milk powder and 0.05% Tween 20 in PBS, pH 7.4) for 1 h at room temperature. Rabbit anti-mPCI IgG (diluted 1:1000; homemade), rabbit anti-hPCI IgG (diluted 1:1000; homemade), monoclonal mouse anti-penta-His IgG (diluted 1:500; Qiagen, Hilden, Germany), rabbit anti-testisin IgG (diluted 1:500; Abgent, San Diego, CA), mouse monoclonal anti-A1AT(diluted 1:2000; Fisher Scientific GmbH), rabbit anti-actin IgG (diluted 1:2000; Sigma-Aldrich), monoclonal mouse anti-lamin B2 IgG (diluted 1:2000; Abcam, Cambridge, UK), and monoclonal mouse anti-Hsp 90 IgG (diluted 1:2000; Exbio, Prague, Czech) were used, respectively, in blotting buffer. The respective secondary antibodies were horseradish peroxidase-conjugated donkey anti-rabbit IgG (diluted 1:5000; GE Healthcare Handels GmbH) and horseradish peroxidase-conjugated sheep anti-mouse IgG (diluted 1:5000; GE Healthcare Handels GmbH). The signal was detected using SuperSignal West Femto or SuperSignal West Pico chemiluminescent substrate (Thermo Fisher Scientific, Rockford, IL) with a FluorChem HD2 imaging system (ProteinSimple, Santa Clara, CA).
Jurkat T cells were incubated in full medium with 200 nM rmPCI, testisin-cleaved rmPCI, or ΔR1-A18 mPCI, respectively, at 37 °C for 2 h. 1 × 10^7 cells were harvested and washed three times with PBS. To prepare whole cell lysates, cell pellets were resuspended and incubated in CelLytic M cell lysis buffer at room temperature for 10 min and applied to electrophoresis. Subcellular fractions were prepared as described previously ([41]) with some modifications. In brief, cell pellets were resuspended in 125 μl of buffer A (10 mM Hepes, pH 7.9, 10 mM KCl, 1.5 mM MgCl2, 0.34 M sucrose, 10% glycerol, 1 mM DTT, 0.1% Triton X-100) containing 10 μl of protease inhibitor mixture P8340 (Sigma-Aldrich) and incubated for 8 min. […]

[5] = target: Urokinase (Homo sapiens, UniProt P00749); assay: Interaction of PCI with other proteases: urokinase; format: biochemical; settings: 300 nM rmPCI, 30 nM protease, 37 °C, Fig. 1F
Protocol: (§1) Urokinase, aPC, thrombin, or enteropeptidase (30 nM each) was incubated with 300 nM rmPCI, respectively, for different periods (10 or 120 min) at 37 °C. The reactions were stopped by adding an equal volume of 2× Laemmli buffer containing 5% 2-mercaptoethanol ([40]). Samples were heated at 99 °C for 5 min followed by SDS-PAGE and Western blotting.
(§2) SDS-PAGE was performed according to the method of Laemmli ([40]) using 10% acrylamide gels. Following electrophoresis, the proteins were transferred onto PVDF membranes. The membranes were blocked with blotting buffer (5% skim milk powder and 0.05% Tween 20 in PBS, pH 7.4) for 1 h at room temperature. […] The signal was detected using SuperSignal West Femto or SuperSignal West Pico chemiluminescent substrate (Thermo Fisher Scientific, Rockford, IL) with a FluorChem HD2 imaging system (ProteinSimple, Santa Clara, CA).

[6] = target: aPC (Homo sapiens, UniProt P04070); assay: Interaction of PCI with other proteases: aPC; format: biochemical; settings: 300 nM rmPCI, 30 nM protease, 37 °C, Fig. 1F
Protocol: as §1, §2

[7] = target: enteropeptidase (Homo sapiens, UniProt P98073); assay: Interaction of PCI with other proteases: enteropeptidase; format: biochemical; settings: 300 nM rmPCI, 30 nM protease, 37 °C, Fig. 1F
Protocol: as §1, §2

T1 sequence (Q9JHJ7 55-298 limits assumed): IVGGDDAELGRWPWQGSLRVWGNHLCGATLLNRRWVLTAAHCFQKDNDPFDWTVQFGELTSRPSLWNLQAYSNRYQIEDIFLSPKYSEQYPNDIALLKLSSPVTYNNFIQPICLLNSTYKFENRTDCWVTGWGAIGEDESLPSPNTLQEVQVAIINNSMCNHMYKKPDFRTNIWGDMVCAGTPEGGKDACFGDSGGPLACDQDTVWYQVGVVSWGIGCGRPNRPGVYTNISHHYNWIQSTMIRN
Sequence of aPC (P04070 212-461 limits assumed): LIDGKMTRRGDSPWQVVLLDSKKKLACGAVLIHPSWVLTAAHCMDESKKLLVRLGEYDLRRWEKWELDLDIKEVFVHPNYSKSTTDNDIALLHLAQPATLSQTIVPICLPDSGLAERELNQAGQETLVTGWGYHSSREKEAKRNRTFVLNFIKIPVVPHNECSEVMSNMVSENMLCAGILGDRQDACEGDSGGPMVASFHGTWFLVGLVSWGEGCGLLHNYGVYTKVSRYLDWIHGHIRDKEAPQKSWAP
Sequence of aPC (P04070 43-197 partner limits assumed): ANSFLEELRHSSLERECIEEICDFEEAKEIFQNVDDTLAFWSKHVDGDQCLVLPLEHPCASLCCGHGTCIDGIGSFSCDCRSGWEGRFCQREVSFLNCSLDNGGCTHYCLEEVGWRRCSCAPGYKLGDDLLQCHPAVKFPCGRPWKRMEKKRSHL
Sequence of enteropeptidase (P98073 whole entry, species assumed): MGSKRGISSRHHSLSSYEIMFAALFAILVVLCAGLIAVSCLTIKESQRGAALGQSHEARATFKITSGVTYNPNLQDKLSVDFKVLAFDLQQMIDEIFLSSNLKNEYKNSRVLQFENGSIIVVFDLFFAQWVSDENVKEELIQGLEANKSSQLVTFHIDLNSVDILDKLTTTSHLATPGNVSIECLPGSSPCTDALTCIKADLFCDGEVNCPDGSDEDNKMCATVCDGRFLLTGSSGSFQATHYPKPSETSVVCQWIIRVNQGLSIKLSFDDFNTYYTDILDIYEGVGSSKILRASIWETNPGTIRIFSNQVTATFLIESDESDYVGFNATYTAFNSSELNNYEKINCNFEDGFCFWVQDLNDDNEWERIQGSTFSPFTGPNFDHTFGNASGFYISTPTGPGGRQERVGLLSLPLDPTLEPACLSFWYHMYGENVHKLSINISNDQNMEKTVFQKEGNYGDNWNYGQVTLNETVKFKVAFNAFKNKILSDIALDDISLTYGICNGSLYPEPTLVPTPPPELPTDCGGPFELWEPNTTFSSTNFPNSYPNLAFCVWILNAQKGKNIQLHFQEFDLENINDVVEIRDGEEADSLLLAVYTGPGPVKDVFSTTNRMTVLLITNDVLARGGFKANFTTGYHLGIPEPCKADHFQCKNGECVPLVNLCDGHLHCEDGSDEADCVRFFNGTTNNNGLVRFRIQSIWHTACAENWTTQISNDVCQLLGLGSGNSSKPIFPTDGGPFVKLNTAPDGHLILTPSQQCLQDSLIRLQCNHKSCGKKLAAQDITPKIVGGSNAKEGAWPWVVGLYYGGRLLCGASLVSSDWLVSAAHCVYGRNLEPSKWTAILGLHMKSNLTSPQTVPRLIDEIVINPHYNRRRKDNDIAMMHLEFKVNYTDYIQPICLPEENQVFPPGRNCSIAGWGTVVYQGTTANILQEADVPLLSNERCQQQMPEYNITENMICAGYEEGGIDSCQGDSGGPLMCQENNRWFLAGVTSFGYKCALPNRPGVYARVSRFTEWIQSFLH

A1AT: serum-derived human α1-antitrypsin (Sigma-Aldrich), another serpin [reference compound]
cleavage by testisin (Western blotting) ([1]; 300 nM protein, 30 nM testisin, 0–40 min, 37 °C, testisin buffer, Fig. 1A, B): Neither cleavage

HRHHPREMKKR [human A+-helix-FITC]
intracellular localization (confocal microscopy) [2]: cytosolic and nuclear localization

HRHHPREMKKRVEDLHVGATV...
cleaved bond [3]: Arg11-Val12

RRHSHSKKKKAKESSVGA [mouse A+-helix-FITC]
intracellular localization (confocal microscopy) [2]: cytosolic and nuclear localization

B1: rmPCI: recombinant mouse protein C inhibitor with N-terminal His tag (protein, UniProt P70458 25-405, looked up)
Plasma serine protease …: SKKKKAKESSVGAVGPPSSKDFAFRLYRALVSESPGQNVFFSPLSVSMSLGMLSLGAGLKTKTQILDGLGLSLQQGQEDKLHKGFQQLLQRFRQPSDGLQLSLGSALFKDPAVHIRDDFLSAMKTLYMSDTFSTNFGNPEIAKKQINNYVAKQTKGKIVDFIKDLDSTHVMIVVNYIFFKAKWQTAFSETNTHKMDFHVTPKRTTQVPMMNREDGYSYYLDQNISCTVVGIPYQGNAIALFILPSEGKMKQVEDGLDERTLRNWLKMFTKRRLDLYLPKFSIEATYKLENVLPKLGIQDVFTTHADLSGITDHTNIKLSEMVHKSMMEVEESGTTAAAITGAIFTFRSARPSSLKIEFTRPFLLTLMEDSHILFVGKVTRP
modifications: N-terminal His tag
internalization by Jurkat T cells (whole cell lysate and subcellular fractions) [4]: taken up by Jurkat T cells and translocated to the nucleus
detection in subcellular fractions of Jurkat T cells ([4]; Fig. 4D): detected in the nuclear envelope fraction
N-terminal testisin cleavage site [1]: between Ala^18 and Val^19
cleavage by urokinase ([5]; 10 or 120 min, anti-mPCI IgG): appearance of a cleaved PCI form
N-terminal cleavage by urokinase ([5]; 120 min, anti-penta-His IgG): do not cleave the N terminus
cleavage by aPC ([6]; 10 or 120 min, anti-mPCI IgG): appearance of a cleaved PCI form
N-terminal cleavage by aPC ([6]; 120 min, anti-penta-His IgG, N-terminally cleaved form in aPC-PCI complex not completely ruled out): do not cleave the N terminus
cleavage by enteropeptidase ([7]; 10 or 120 min, anti-mPCI IgG): appearance of a cleaved PCI form
N-terminal cleavage by enteropeptidase ([7]; 120 min, anti-penta-His IgG): do not cleave the N terminus

B2: rmPCI preincubated with U937 cells: rmPCI preincubated with testisin-expressing U937 cells (protein, UniProt P70458 25-405, looked up)
Plasma serine protease …: SKKKKAKESSVGAVGPPSSKDFAFRLYRALVSESPGQNVFFSPLSVSMSLGMLSLGAGLKTKTQILDGLGLSLQQGQEDKLHKGFQQLLQRFRQPSDGLQLSLGSALFKDPAVHIRDDFLSAMKTLYMSDTFSTNFGNPEIAKKQINNYVAKQTKGKIVDFIKDLDSTHVMIVVNYIFFKAKWQTAFSETNTHKMDFHVTPKRTTQVPMMNREDGYSYYLDQNISCTVVGIPYQGNAIALFILPSEGKMKQVEDGLDERTLRNWLKMFTKRRLDLYLPKFSIEATYKLENVLPKLGIQDVFTTHADLSGITDHTNIKLSEMVHKSMMEVEESGTTAAAITGAIFTFRSARPSSLKIEFTRPFLLTLMEDSHILFVGKVTRP
modifications: preincubated with U937 cells
internalization by Jurkat T cells (whole cell lysate and subcellular fractions) [4]: not detected inside Jurkat T cells

B3: rhPCI: recombinant human protein C inhibitor with N-terminal His tag (protein, UniProt P05154 26-406, looked up)
Plasma serine protease …: EMKKRVEDLHVGATVAPSSRRDFTFDLYRALASAAPSQSIFFSPVSISMSLAMLSLGAGSSTKMQILEGLGLNLQKSSEKELHRGFQQLLQELNQPRDGFQLSLGNALFTDLVVDLQDTFVSAMKTLYLADTFPTNFRDSAGAMKQINDYVAKQTKGKIVDLLKNLDSNAVVIMVNYIFFKAKWETSFNHKGTQEQDFYVTSETVVRVPMMSREDQYHYLLDRNLSCRVVGVPYQGNATALFILPSEGKMQQVENGLSEKTLRKWLKMFKKRQLELYLPKFSIEGSYQLEKVLPSLGISNVFTSHADLSGISNHSNIQVSEMVHKAVVEVDESGTRAAAATGTIFTFRSARLNSQRLVFNRPFLMFIVDNNILFLGKVNRP
modifications: N-terminal His tag
N-terminal testisin cleavage site [1]: between Arg^11 and Val^12
